This note sets out measurements from paper PMC3688683, “The N-Terminal Domains of Vps3 and Vps8 Are Critical for Localization and Function of the CORVET Tethering Complex on Endosomes” (PLoS ONE, 2013).

In the assay the target is T1, Vps3-TAP (full-length Vps3, C-terminal TAP tag) (yeast (genomic locus of BY4741/BY4733 …, UniProt P23643 1-1011)).
T1 construct: Vps3, CORVET-specific subunit, yeast, full-length; also called Vps3-Cbp; source: yeast, genomically TAP-tagged, in lysate; overexpressed and TAP-purified from yeast for the GST-Rab pull-down; not shown: TAP, C-terminal, kept
T1 sequence (looked up): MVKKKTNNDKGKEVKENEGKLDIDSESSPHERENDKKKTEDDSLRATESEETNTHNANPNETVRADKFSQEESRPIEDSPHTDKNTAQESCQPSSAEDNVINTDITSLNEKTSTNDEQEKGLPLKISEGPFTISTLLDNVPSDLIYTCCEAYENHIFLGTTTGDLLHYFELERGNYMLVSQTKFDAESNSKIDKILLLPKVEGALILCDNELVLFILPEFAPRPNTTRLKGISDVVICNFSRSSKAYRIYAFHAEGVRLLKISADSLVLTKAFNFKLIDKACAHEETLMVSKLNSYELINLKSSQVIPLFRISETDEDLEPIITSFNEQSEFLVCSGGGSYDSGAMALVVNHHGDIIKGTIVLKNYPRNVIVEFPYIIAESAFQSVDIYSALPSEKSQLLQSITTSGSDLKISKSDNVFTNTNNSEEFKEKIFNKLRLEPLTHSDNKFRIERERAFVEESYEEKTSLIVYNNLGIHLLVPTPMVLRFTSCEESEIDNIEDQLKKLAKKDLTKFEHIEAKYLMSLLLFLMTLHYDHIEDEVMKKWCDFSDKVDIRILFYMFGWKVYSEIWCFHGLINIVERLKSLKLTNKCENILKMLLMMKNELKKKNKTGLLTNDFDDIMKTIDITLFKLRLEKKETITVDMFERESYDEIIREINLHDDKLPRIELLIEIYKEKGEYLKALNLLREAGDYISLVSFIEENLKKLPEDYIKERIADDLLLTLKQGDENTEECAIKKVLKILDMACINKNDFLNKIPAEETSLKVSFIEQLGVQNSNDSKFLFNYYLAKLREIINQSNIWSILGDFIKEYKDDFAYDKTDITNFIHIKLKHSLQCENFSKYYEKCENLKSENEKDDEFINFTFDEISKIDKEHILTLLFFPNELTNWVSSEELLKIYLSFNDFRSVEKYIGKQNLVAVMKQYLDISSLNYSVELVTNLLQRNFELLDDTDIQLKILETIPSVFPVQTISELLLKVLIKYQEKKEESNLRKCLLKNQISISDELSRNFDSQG
The experiment in a line: pull-down; 150 µg GST-Vps21 loaded with GTPγS (or GDP) on GSH-Sepharose; 35 µg yeast-purified Vps3-Cbp construct, 1 h at 4°C; 20 mM HEPES/NaOH pH 7.4, 150 mM NaCl, 2 mM MgCl2, 0.1% NP-40, 7 mg/ml BSA; eluted with 20 mM EDTA; blot against Cbp. The following applies: both partners purified.

B1: GST-Vps21 (natural protein, yeast, UniProt P36017 1-210, looked up)
chain: MNTSVTSIKLVLLGEAAVGKSSIVLRFVSNDFAENKEPTIGAAFLTQRVTINEHTVKFEIWDTAGQERFASLAPMYYRNAQAALVVYDVTKPQSFIKARHWVKELHEQASKDIIIALVGNKIDMLQEGGERKVAREEGEKLAEEKGLLFFETSAKTGENVNDVFLGIGEKIPLKTAEEQNSASNERESNNQRVDLNAANDGTSANSACSC
notes: Vps21, endosomal Rab5-like GTPase of yeast; loaded with GTPγS or GDP before the pull-down; Held on GSH-Sepharose; nucleotide state set by loading with 1 mM GTPγS or GDP; also called Vps21-GTP; immobilized Vps21; source: recombinant
As to B1, the binding result was “binds”.
